PMC5102385, “Structure of a Spumaretrovirus Gag Central Domain Reveals an Ancient Retroviral Capsid” (PLoS Pathogens, 2016)

Experiments:
[1] = biological target: the molecule itself; assay: AUC; multi-speed sedimentation equilibrium at varying protein concentration, 20 mM Tris-HCl pH 8, 150 mM NaCl, 0.5 mM TCEP, interference data, global fit with SEDPHAT; monomer to dimer
[2] = biological target: the molecule itself; assay: as above; remark: listed apart in the source

B1: PFV-Gag CtDCEN (domain or fragment)
chain: RTHGTFPMHQLGNVIKGIVDQEGVATAYTLGMMLSGQNYQLVSGIIRGYLPGQAVVTALQQRLDQEIDNQTRAETFIQHLNAVYEILGLNARGQSIR
notes: Gag of Prototype foamy virus (PFV), residues 381-477 (CtDCEN), amplified from plasmid pcziGag4, in pET22b (NdeI/XhoI); also called PFV-CtDCEN; source: E. coli Rosetta 2 (DE3), purified (Ni-NTA, SEC on Superdex 75)
[1]
  Ka: 1.1e+06 M⁻¹
  stoichiometry N: 2
[2]
  Kd: 900 nM
